# Measurements from patent US20060140858A1, “Drug pre-targeting by means of bi-specific antibodies and hapten constructs comprising a carrier peptide and the active agent(s)” (Immunomedics, Inc., priority 2002, published 2006).
# Assay: In-vivo stability and clearance of IMP 224
# Design: species or system mouse
# Method: Kits were reconstituted with 4 mCi In-111 in 0.5 mL water. The In-111 kit was incubated at room temperature for 10 min and then diluted with 0.5 mL of the cold indium containing 0.5 M pH 7.2 acetate buffer.
compound,measurement,setting,value
"COc1cccc2c1C(=O)c1c(O)c3c(c(O)c1C2=O)C[C@@](O)(C(CO)=NNc1ccc(C(=O)N[C@@H](CCCCNC(=O)CN(CCN(CCN(CC(=O)O)CC(=O)O)CC(=O)O)CC(=O)O)C(=O)N[C@@H](Cc2ccc(O)cc2)C(=O)N[C@@H](CCCCNC(=O)CN(CCN(CCN(CC(=O)O)CC(=O)O)CC(=O)O)CC(=O)O)C(N)=O)cc1)C[C@@H]3O[C@H]1C[C@H](N)[C@H](O)[C@H](C)O1 [IMP 224, Dox = N—NH—C6H4—CO-Lys(DTPA)-Tyr-Lys(DTPA)-NH2]",Activity Recovered,"Serum, 30 min, Animal #1",1.92 µCi
same,Activity Recovered,"Serum, 30 min, Animal #2",3.64 µCi
same,Activity Recovered,"Serum, 1 hr, Animal #1",1.21 µCi
same,Activity Recovered,"Serum, 1 hr, Animal #2",1.27 µCi
same,Activity Recovered,"Urine, 30 min, Animal #1",220 µCi
same,Activity Recovered,"Urine, 30 min, Animal #2",133 µCi
same,Activity Recovered,"Urine, 1 hr, Animal #1",41.1 µCi
same,Activity Recovered,"Urine, 1 hr, Animal #2",273 µCi
same,dose excreted,"mouse, urine, 400 uCi, read-out: renal excretion",~100%
same,integrity of excreted peptide (reverse phase HPLC),urine,excreted intact in the urine
same,antibody binding of urine activity (size exclusion HPLC),"urine, 30 min and 1 hr",could still bind to the antibody
